Molecular target: rabbit anti-CS197 peptide antiserum raised against unconjugated peptide SEQUENCE ID NO 19
Assay: Western blot competition; antiserum pre-incubated overnight with peptide immunogen

- concentration of peptide immunogen that inhibited antibody binding to the blot bands: 2.5 FM
Binder: LPGTKAWMETEDTLGRVLSPEPDHDSLYHPPPEED [CS 197 synthetic peptide SEQUENCE ID NO 19]

— patent US20020137904A1
